From IntAct's records for PubMed 29892012

B1: Retinoic acid receptor alpha (Homo sapiens), P10276 (parent)
chain: MASNSSSCPTPGGGHLNGYPVPPYAFFFPPMLGGLSPPGALTTLQHQLPVSGYSTPSPATIETQSSSSEEIVPSPPSPPPLPRIYKPCFVCQDKSSGYHYGVSACEGCKGFFRRSIQKNMVYTCHRDKNCIINKVTRNRCQYCRLQKCFEVGMSKESVRNDRNKKKKEVPKPECSESYTLTPEVGELIEKVRKAHQETFPALCQLGKYTTNNSSEQRVSLDIDLWDKFSELSTKCIIKTVEFAKQLPGFTTLTIADQITLLKAACLDILILRICTRYTPEQDTMTFSDGLTLNRTQMHNAGFGPLTDLVFAFANQLLPLEMDDAETGLLSAICLICGDRQDLEQPDRVDMLQEPLLEALKVYVRKRRPSRPHMFPKMLMKITDLRSISAKGAERVITLKMEIPGSMPPLIQEMLENSEGLDTLSGQPGGGGRDGGGLAPPPGSCSPSLSPSSNRSSPATHSP
partner: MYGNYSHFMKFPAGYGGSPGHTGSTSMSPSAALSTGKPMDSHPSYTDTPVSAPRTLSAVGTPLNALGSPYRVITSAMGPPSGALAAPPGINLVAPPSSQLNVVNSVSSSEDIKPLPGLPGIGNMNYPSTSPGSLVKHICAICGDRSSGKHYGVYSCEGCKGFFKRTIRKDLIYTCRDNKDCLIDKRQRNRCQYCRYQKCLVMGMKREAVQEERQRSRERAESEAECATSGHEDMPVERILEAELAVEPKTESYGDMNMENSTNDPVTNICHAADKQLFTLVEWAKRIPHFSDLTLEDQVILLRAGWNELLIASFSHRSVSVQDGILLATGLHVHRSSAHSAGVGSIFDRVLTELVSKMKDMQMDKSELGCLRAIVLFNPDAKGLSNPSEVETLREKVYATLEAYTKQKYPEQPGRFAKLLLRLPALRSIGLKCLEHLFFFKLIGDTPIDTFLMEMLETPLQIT
B2: Keratin, type I cuticular Ha8 (Homo sapiens), O76015 (parent)
chain: MTSSYSSSSCPLGCTMAPGARNVSVSPIDIGCQPGAEANIAPMCLLANVAHANRVRVGSTPLGRPSLCLPPTCHTACPLPGTCHIPGNIGICGAYGENTLNGHEKETMQFLNDRLANYLEKVRQLEQENAELEATLLERSKCHESTVCPDYQSYFHTIEELQQKILCSKAENARLIVQIDNAKLAADDFRIKLESERSLRQLVEADKCGTQKLLDDATLAKADLEAQQESLKEEQLSLKSNHEQEVKILRSQLGEKLRIELDIEPTIDLNRVLGEMRAQYEAMLETNRQDVEQWFQAQSEGISLQDMSCSEELQCCQSEILELRCTVNALEVERQAQHTLKDCLQNSLCEAEDRFGTELAQMQSLISNVEEQLSEIRADLERQNQEYQVLLDVKTRLENEIATYRNLLESEDCKLPCNPCSTSPSCVTAPCAPRPSCGPCTTCGPTCGASTTGSRF
partner: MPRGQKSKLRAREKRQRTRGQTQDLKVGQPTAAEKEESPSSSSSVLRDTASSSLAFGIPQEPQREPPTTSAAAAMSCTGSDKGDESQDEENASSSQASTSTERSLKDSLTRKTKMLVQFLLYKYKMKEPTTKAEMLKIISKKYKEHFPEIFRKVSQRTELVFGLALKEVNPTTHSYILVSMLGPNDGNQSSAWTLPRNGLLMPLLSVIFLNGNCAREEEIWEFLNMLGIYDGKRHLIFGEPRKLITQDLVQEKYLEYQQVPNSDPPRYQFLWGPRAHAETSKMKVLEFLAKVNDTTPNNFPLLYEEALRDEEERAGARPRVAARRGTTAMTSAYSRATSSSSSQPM
B3: Keratin, type I cuticular Ha8 (Homo sapiens), O76015 (parent)
chain: B2 chain
B4: Keratin, type I cuticular Ha8 (Homo sapiens), O76015 (parent)
chain: B2 chain
partner: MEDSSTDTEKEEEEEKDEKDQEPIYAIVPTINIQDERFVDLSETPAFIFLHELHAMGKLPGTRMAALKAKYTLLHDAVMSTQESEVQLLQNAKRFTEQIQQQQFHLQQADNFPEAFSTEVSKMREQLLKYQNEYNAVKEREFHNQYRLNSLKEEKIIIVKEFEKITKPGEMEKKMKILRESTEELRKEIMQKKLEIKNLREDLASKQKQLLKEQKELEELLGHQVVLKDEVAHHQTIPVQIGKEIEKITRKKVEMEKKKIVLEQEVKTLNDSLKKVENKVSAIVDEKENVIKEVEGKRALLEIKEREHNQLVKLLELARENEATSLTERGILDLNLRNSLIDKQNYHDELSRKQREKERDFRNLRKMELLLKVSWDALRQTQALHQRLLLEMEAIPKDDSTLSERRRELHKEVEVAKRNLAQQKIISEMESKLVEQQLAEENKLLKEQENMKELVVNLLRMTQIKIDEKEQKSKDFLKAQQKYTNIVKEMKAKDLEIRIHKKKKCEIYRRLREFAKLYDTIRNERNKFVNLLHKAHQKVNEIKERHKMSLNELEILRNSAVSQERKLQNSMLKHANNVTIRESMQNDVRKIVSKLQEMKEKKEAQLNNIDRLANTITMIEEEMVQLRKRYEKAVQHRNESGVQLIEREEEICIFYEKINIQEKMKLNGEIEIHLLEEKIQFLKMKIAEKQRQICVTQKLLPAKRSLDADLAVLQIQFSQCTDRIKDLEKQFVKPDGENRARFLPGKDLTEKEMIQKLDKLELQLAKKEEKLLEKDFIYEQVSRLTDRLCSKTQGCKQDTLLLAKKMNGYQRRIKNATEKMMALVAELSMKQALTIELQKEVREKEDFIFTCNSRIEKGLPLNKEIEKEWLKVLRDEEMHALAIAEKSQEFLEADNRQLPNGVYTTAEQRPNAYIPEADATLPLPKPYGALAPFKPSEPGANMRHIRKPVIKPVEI
B5: Keratin, type I cuticular Ha8 (Homo sapiens), O76015 (parent)
chain: B2 chain
partner: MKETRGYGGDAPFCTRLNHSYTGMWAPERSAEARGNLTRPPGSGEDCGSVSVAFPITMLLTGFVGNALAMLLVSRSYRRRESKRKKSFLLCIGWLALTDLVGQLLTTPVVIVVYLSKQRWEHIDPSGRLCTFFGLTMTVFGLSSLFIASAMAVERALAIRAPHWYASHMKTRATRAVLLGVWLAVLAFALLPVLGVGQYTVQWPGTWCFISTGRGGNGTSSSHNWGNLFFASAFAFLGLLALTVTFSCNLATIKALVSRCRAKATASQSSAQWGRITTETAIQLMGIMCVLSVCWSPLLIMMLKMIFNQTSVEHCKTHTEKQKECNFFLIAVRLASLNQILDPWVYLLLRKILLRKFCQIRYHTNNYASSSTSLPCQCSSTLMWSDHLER

Variants of: B1
Settings: with rxrg_human RXRG

| Variant | effect of a mutation on the interaction |
| --- | --- |
| P375L | disrupting interaction strength |

Variants of: B2
Settings: with magb4_human MAGEB4, O15481

| Variant | effect of a mutation on the interaction |
| --- | --- |
| D306A | with no effect |

Variants of: B2
Settings: with magb4_human MAGEB4, O15481
Remark: another data set of the same source

| Variant | effect of a mutation on the interaction |
| --- | --- |
| N270K | with no effect |

Variants of: B3
Settings: with k22e_human KRT2, P35908
Sequence of k22e_human KRT2, P35908 (P35908 whole entry): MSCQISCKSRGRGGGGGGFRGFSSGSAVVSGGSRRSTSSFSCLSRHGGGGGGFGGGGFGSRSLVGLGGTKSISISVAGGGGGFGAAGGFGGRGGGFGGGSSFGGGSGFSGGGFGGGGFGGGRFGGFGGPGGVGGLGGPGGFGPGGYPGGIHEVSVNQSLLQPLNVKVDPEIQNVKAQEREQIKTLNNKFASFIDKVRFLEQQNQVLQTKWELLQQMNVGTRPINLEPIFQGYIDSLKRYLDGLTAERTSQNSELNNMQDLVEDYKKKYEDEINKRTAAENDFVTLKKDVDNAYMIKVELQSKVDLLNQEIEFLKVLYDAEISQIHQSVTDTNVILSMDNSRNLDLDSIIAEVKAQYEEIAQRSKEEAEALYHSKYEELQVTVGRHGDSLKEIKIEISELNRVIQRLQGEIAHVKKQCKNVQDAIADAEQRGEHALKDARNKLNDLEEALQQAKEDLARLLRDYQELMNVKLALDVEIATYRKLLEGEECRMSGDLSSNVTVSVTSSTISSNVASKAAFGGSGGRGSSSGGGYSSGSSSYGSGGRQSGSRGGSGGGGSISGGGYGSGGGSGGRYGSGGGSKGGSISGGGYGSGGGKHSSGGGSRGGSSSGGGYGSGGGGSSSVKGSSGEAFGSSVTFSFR

| Variant | effect of a mutation on the interaction |
| --- | --- |
| D306A | with no effect |

Variants of: B3
Settings: with txnd5_human TXNDC5, Q8NBS9
Sequence of txnd5_human TXNDC5, Q8NBS9 (Q8NBS9 whole entry): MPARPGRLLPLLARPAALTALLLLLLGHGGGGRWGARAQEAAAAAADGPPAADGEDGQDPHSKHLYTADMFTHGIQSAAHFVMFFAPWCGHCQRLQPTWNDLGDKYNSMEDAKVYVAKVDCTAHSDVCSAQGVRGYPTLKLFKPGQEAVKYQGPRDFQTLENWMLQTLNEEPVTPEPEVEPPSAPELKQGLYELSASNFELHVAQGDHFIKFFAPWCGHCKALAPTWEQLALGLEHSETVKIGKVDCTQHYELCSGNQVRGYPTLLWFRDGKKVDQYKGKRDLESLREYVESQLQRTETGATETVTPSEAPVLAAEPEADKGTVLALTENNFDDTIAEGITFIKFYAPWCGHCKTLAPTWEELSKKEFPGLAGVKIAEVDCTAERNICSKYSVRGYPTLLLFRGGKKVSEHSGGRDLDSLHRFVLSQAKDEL

| Variant | effect of a mutation on the interaction |
| --- | --- |
| D306A | with no effect |

Variants of: B3
Settings: with prs8_human PSMC5, P62195
Sequence of prs8_human PSMC5, P62195 (P62195 whole entry): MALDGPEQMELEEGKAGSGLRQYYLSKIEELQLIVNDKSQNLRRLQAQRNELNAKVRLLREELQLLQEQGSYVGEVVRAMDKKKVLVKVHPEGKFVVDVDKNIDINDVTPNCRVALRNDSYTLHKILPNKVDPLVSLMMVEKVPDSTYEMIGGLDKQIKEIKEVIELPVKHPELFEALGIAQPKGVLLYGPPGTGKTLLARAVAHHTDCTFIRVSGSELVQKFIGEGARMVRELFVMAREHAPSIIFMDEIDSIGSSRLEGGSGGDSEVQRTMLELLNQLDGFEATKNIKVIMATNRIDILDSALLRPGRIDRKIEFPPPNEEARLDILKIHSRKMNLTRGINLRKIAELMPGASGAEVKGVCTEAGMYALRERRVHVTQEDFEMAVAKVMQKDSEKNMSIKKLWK

| Variant | effect of a mutation on the interaction |
| --- | --- |
| D306A | with no effect |

Variants of: B3
Settings: with p85b_human PIK3R2, O00459
Sequence of p85b_human PIK3R2, O00459 (O00459 whole entry): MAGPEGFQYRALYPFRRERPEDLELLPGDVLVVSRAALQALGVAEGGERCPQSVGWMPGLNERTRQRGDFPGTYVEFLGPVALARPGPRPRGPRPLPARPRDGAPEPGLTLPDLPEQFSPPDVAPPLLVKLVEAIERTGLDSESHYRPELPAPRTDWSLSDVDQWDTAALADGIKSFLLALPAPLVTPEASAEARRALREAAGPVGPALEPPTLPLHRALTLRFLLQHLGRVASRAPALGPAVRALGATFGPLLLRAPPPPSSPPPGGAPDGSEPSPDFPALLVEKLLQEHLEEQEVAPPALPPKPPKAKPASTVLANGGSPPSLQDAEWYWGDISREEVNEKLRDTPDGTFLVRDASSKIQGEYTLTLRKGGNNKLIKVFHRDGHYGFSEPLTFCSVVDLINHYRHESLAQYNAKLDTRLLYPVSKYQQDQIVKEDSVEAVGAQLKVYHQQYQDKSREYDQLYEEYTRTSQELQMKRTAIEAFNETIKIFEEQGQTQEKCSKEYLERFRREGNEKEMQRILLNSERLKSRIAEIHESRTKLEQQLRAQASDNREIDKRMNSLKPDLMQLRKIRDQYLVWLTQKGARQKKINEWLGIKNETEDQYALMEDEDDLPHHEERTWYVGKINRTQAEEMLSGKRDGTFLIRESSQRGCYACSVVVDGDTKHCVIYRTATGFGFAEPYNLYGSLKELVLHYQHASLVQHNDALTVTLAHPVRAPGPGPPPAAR

| Variant | effect of a mutation on the interaction |
| --- | --- |
| D306A | with no effect |

Variants of: B3
Settings: with KRT6A

| Variant | effect of a mutation on the interaction |
| --- | --- |
| D306A | with no effect |

Variants of: B3
Settings: with k2c4_human KRT4, P19013
Sequence of k2c4_human KRT4, P19013 (P19013 whole entry): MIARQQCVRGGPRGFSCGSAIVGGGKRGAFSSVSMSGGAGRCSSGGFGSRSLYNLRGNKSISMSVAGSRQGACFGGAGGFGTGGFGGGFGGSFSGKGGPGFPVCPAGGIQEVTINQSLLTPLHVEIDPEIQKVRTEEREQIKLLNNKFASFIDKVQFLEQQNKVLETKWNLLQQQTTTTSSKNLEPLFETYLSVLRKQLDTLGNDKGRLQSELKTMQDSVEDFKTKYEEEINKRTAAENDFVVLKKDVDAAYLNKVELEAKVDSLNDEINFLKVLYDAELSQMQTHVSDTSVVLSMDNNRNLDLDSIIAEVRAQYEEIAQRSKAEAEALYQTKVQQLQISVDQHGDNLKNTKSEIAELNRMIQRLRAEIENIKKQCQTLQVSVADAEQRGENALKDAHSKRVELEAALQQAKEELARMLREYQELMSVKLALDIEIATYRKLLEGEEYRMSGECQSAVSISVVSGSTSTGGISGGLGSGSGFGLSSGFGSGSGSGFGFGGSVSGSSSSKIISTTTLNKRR

| Variant | effect of a mutation on the interaction |
| --- | --- |
| D306A | with no effect |

Variants of: B3
Settings: with txlnb_human TXLNB

| Variant | effect of a mutation on the interaction |
| --- | --- |
| D306A | with no effect |

Variants of: B3
Settings: with KRT79, Q5XKE5
Sequence of KRT79, Q5XKE5 (Q5XKE5 whole entry): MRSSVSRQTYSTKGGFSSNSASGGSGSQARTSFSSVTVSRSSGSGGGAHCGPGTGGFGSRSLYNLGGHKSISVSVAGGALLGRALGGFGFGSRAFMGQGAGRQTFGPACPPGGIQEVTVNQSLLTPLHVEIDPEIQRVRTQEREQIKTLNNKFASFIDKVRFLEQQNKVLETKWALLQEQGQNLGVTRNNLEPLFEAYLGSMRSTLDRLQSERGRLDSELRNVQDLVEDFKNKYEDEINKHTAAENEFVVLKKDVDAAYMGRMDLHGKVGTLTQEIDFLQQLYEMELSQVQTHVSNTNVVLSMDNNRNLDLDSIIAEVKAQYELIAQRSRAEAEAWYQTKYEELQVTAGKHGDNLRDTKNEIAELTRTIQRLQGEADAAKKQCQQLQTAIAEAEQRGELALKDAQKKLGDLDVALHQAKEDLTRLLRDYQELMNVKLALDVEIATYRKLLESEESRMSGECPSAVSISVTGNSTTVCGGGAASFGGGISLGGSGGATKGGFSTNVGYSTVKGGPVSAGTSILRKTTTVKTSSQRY

| Variant | effect of a mutation on the interaction |
| --- | --- |
| D306A | with no effect |

Variants of: B3
Settings: with txlna_human TXLNA

| Variant | effect of a mutation on the interaction |
| --- | --- |
| D306A | with no effect |

Variants of: B3
Settings: with k22e_human KRT2, P35908
Remark: another data set of the same source

| Variant | effect of a mutation on the interaction |
| --- | --- |
| N270K | with no effect |

Variants of: B3
Settings: with txnd5_human TXNDC5, Q8NBS9
Remark: another data set of the same source

| Variant | effect of a mutation on the interaction |
| --- | --- |
| N270K | with no effect |

Variants of: B3
Settings: with prs8_human PSMC5, P62195
Remark: another data set of the same source

| Variant | effect of a mutation on the interaction |
| --- | --- |
| N270K | with no effect |

Variants of: B3
Settings: with p85b_human PIK3R2, O00459
Remark: another data set of the same source

| Variant | effect of a mutation on the interaction |
| --- | --- |
| N270K | with no effect |

Variants of: B3
Settings: with KRT6A
Remark: another data set of the same source

| Variant | effect of a mutation on the interaction |
| --- | --- |
| N270K | with no effect |

Variants of: B3
Settings: with k2c4_human KRT4, P19013
Remark: another data set of the same source

| Variant | effect of a mutation on the interaction |
| --- | --- |
| N270K | with no effect |

Variants of: B3
Settings: with txlnb_human TXLNB
Remark: another data set of the same source

| Variant | effect of a mutation on the interaction |
| --- | --- |
| N270K | with no effect |

Variants of: B3
Settings: with KRT79, Q5XKE5
Remark: another data set of the same source

| Variant | effect of a mutation on the interaction |
| --- | --- |
| N270K | with no effect |

Variants of: B3
Settings: with txlna_human TXLNA
Remark: another data set of the same source

| Variant | effect of a mutation on the interaction |
| --- | --- |
| N270K | with no effect |

Variants of: B4
Settings: with cc146_human CCDC146, Q8IYE0

| Variant | effect of a mutation on the interaction |
| --- | --- |
| D306A | with no effect |

Variants of: B4
Settings: with cc146_human CCDC146, Q8IYE0
Remark: another data set of the same source

| Variant | effect of a mutation on the interaction |
| --- | --- |
| N270K | with no effect |

Variants of: B5
Settings: with pe2r3_human PTGER3, P43115

| Variant | effect of a mutation on the interaction |
| --- | --- |
| D306A | with no effect |
